Laboratory results reported in the DeepSol protein solubility set.

Test: soluble on expression in E. coli; label from the status in PepcDB or PDB records

Sequence | soluble on expression in E. coli
MSDATYADAVIMEMNGRDIEIVSIKPQTTTGRKPVKTMNRNGRVNGYCDGVTEHKLSVTAAIPIDGTEIDWDNITKAKITIYPINDEDRRTSYLDCFTVDTGEQYEVDNEARIDIEMIALHKIKE | not soluble
MSDDKKSLINIELLPKELITNLFGPATKSIGEGLGGIVNYVVGPLRKLNVVSEKSYIDFVEKINSKTDSIPVDNRDDSKLGFALKTMEDARYQLEDEDMREYFSNLLAGLVDNRKNQDSSPRFSIILSELTTIDANLLKKLYKLSITPTIKVRVQAPNGNGIDYIENLILTQKGIVENNFSDLSPSLQTLRSYGLIDIRPSIELTQKKHTKIYDDFENSTYFKTLKYNLNSFFANSSFFKDTGFSIISIRGSIHVTDLGFLFCSKIFSSEEE | not soluble
MSDDPNTTQERAMEGPSENQAARQLEGNQEEAQRQPKEEQADREEAKGEEEAPQVAAALPIPDSPFLTELARLLRGSLRPYLNTEPDEVIEAARQDHQLDQEVANENLLQYICRTLVESNDMGKLAEIRELFARTPEDPAFNTPAGIDDSAMNQFYELIRDCRVVPEDDQTFVPRQALATRIHLIIDSFQARRESEFLRQWCQQNIVCLLYGNPVPEMKDFAYRILIEMLTSSSTWTAELESFANELSRKRGTFINDYWATIRDQNEAGDLDPKRTLFADFRDQHSVFGNVQFDIFRERLAQLEKLWHSQMRMFDVPDKVLCVTGIVTDTMTEMLMGVKDGKPNITPFLKKARIFYRLSDGAETSEAPAEASARASEAPEAPALPPKRSRGIKRKLSEYAEELFESKKPKSDELPTAEQWMYFLQHCLQGPEQDEQRGGNQ | not soluble
MSDEWEQLTVELRKIPRGTEAAPQYLRHLMKMFVADFETAVSKRFDVKFWNKLKSMMDEITKAMENDRLVNHNVQNLAIGFLTDLSLLVHYHYEIPNYGNDISKQLTWTPDVFLNRKPIKSKKNSRVFMAYVLLRMGDLMRYKENYPKAQEYYEQSCRINPADGAVWNQLGLISSLGAKNLESVYFHTRALHATMEFPTASGGLTNIFKNFANRDISRPMPIKDLYLSCLGRIHFLLEIEDSSVHLQKIGEEAATSKEMIVPLMSVYKHLEDGTELEQRAVEYVKTIWCTAYRSLLKTLDDYKEESKKLADVPHLLHILALLLCAPKLLRGIEDQTEDEVTSICEWLLCANCDEKIKDSDAFGYFHCLQRIQYPLTRTQLAQKLVEIEDEDESKDSDQSTIPEEDQKSLSTDTSRIQNEDSEPESESESSDEEVLQRGRRRGRNPNLDESVETDEDEF | not soluble
MSDGQYGPISAGIIRSITDKSYERRKAAALDVEKLVRDLFNNNQLSQLDKCLSVLGELINSGNSNQRKGGLIGMAAASIALGNKNAPPYTAKLVEPIIPCFHDADLQIRYYACESLYNIAKICKTSVLAHFEDIFDVLWRVTADSDQNVRGGAELLNRLITEIVLSEQEFDIAILMSLIRDRIYTQTSSNRRFILEWLNTIDSAPFFSFCNYISEISDGLFKMLGEQAPAVRDLCETVLGNFLTAIRSKPESLSLEDRIQMINVLVVHTHENEPFLARKLSLIWLEEFVKLYKTDLLVMLSTCLVGILPSIVETELKADAVNRLLMALVGEAKLEQDILDKTIEVLLKYIKYDVVETRVTVLNWIRHLHSSMPGQLFVHMHQIFPVLLNTLSDTSDEVLLLDLFLISNICQSESAPDQVDVSTFGLNETELKQVSHISPFLIKFVLSLLEMFRTEPTLLRERGVLIIRQLCLLLEPAHIYRVICVLLERESKHNFAQEMVSTLHGVLLTATELFILRDELRALSNESSRSLFECIFRVWSNRPIALLGLCLLSQHYQQAADIALLLSQVDITVDVLLEIDKLVNLVESPVLAYVRMDLLSSIHRPPLCTVLSALLMLLPQSEAFVTLHKRLQAVPALVSIDNSPYAPKVPPCRIDFPPLMLHFKAALARRQTEVRSRHRDLLSGVVTQMKNVKI | not soluble
MSDGSMDDDGRLFPDLGSSTHDNREIRVRFLNRCAYPVDVFWLNPSKQPTKYGTLAQKKYLDIKTFKDHPWVARRSFDGCKVLVNEKEVFWPEPAPRMNLIVRNHCVITMKVQSLREIAGRSFLRHNPTEVPNKIKGLPRELQFEVKHFLDRKQEYSEIVCRSIPPPGPQRPQQ | not soluble
MSDIESLGEAAGLFEEPEDFLPPPPKPHFAEYQRSHITKESKSDVKDIKLRLVGTSPLWGHLLWNAGIYTANHLDSHPELIKGKTVLELGAAAALPSVICALNGAQMVVSTDYPDPDLMQNIDYNIKSNVPEDFNNVSTEGYIWGNDYSPLLAHIEKIGNNNGKFDLIILSDLVFNHTEHHKLLQTTKDLLAEKGQALVVFSPHRPKLLEKDLEFFELAKNEFHLVPQLIEMVNWKPMFDEDEETIEVRSRVYAYYLTHEK | soluble
MSDIKNITKLQIEDKGKKYSLYSLKKLSQELGKDVTRLPYSIRVLLENQLRNIDGYKVKEDDMHKVLDWDAKASSRPEIPHMPARVVMQDFTGVPAVVDLAAMRKAIKDAGGDADKINPLVDTAMVIDHSVQVDFYGTKTALAQNVAKEFERNGERYSLLKWAQKAFDDFIVVPPGMGIIHQVNLEYLAKGALVKNINGEDVIYPDTLVGTDSHTTMINGVGVVGWGVGGIEAEAVMLGQPYYMVLPDVVGVKFTGKLKTGVTATDLVLKVTEVLRKHGVVGKFVEYYGEGLESLSLPDRATIANMAPEYGATIGFFPVDEVTLDFFNNTNRSELVDAAREMYKEQLLFRENPAEEPEYSSIVEIDLSEVESNLAGPKRPQDRVAFHDMKKAFAEALVHEQGLHGFGLTDEQLQKLAEVKGLNERITHGSVAIAAITSCTNTSNPSLLLGAGLLAKKANEKGLKVKPFVKTSLAPGSQVVTQYLEKANLLPELENLGFNLVGYGCTTCIGNSGPLDEPVVEAINEADLIVASVSSGNRNFEGRINPHVKANYLASPIHVVAYALAGTVDFDPVEDAIGKDAEGNDVYLADIWPTTEEIAAIQSHVINSDMFKKAYATVLDGTEDWQKLKAPEGKLYEFDSSSTYIQCPNFFEKFAEGNDDLDIKGARTLLMLGDSVTTDHISPAGAIPEEYPAGQYLKSHGVEKKDFNSYGSRRGNHEVMMRGTFANIRIRNLLLDNVEGGFTKYHLDGSQQYVFDAAMKYKEKGIPLVILAGKEYGTGSSRDWAAKGTFLLGVKAVIAESYERIHRSNLVGMGVLPLEYVNGQNAKTLGLDGTEMFNIKNLNNIKPRQIVIVEAVHPKTAHTTTFEALARLDADVDVDYLKNGGILQTVLKDIMGDKKESKSTQSTTSKGCGSADTSSETSCPFAKIANFFKKLFK | not soluble
MSDKDDLIVAGVNQKDKGIWRDFYDRYYAALCSYVEKILFLTDAVEDLVQEVFISVWEGKRTFSDSRELTNYLYRACYNNALLYIRNHQIHDSILNGLPQEEDFEDEEMLYALTVKEEAIRQLYFYIEELPAEQRRIILLRIEGHSWDEIASRLGVSINTVKTQKSRSYKFLREKLANSSYSVLLALIFY | not soluble
MSDKRRYFGTDGVRGKVGQYPITPDFVLKLGWAAGRVLAKQGTRKVIIGKDTRISGYMLESALEAGLAAAGLKATFTGPMPTPAVAYLTQTFRAEAGIVISASHNPYYDNGIKFFSYEGTKLPDDIELAIEAELDKDIECVESAELGKASRMVDAAGRYIEFCKSTFPSKLSLSGLKLVVDCANGATYHIAPNVFRELGAEVIAMGVEPNGLNINDQVGATDVRALQKRVVEEHAHLGLAFDGDGDRIIMVDHLGNKVDGDQIAYIIARDALRRGELKGGVVGTLMTNLGMENGLKQLGIPFVRAAVGDRYVMEKLLEKGWKIGAENSGHVILLDKVTTGDAIVAGLQVLASVVGSEMTLHELAKGMTLYPQVLENVRFAGDNNPLEADAVKAAVSEVEAELGSKGRVLLRKSGTEPLIRVMVEGEDETLVKQSALKIAQAVKDNC | not soluble
MSDMNNPADDNNGAMDDLWAEALSEQKSTSEKSAADAVFQQFGGGDVSGTLQDIDLIMDIPVKLTVELGRTRMTIKELLRLTQGSVVALDGLAGEPLDILINGYLIAQGEVVVVADKYGVRITDIITPSERMRRLSR | not soluble
MSDMSDLEDDQTGHCGSGEHSGPFDPKRHAREQHNALERRRRDNIKDMYTSLREVVPDANGERVQASRAVILKKAIESIEKGQSDSATLSVDVAEQESKNAKLREEIARLKAKKDPSSSQSIIQ | not soluble
MSDNEIVAGIMRDHIINLLKEGKRIDDRGFEDYRPIEIEVGIIEKAEGSALVKLGSTQVLVGIKTTLGEPFPDTPNMGVMTTNVELVPLASPTFEPGPPDERAIELARVTDRGIRESRALNLEKMVIVPGKIVRVVFIDVHVLDHDGNLMDAIGIASIAALLNAKVPKVEYNEETGEVEILEEKEPLPVERIPIPVTFAKIGNILVVDPSLEEELVMDGRLTVTTDETGHISAVQKGEGGAFKLEEVMYAVETAFKKAEEIRKIVLEAIKKSGE | soluble
MSDNSTGTTKSRSNVDDVQAHYDLSDAFFALFQDPTRTYSCAYFERDDMTLHEAQVAKLDLTLGKLGLEPGMTLLDVGCGWGSVMKRAVERYDVNVVGLTLSKNQHAYCQQVLDKVDTNRSHRVLLSDWANFSEPVDRIVTIEAIEHFGFERYDDFFKFAYNAMPADGVMLLHSITGLHVKQVIERGIPLTMEMAKFIRFIVTDIFPGGRLPTIETIEEHVTKAGFTITDIQSLQPHFARTLDLWAEALQAHKDEAIEIQSAEVYERYMKYLTGCAKAFRMGYIDCNQFTLAK | soluble
MSDPHQSQQLVTAGTALSEASAAAVLVHGRGATARSIVQMGAEFQQDGLALLAPQAARNTWYPNSFLSPVEQNEPGRSSGLQAIEDAVTKAAEAGIPTDHVLILGFSQGACLASEFVARNPQRYGGLVALSGGLIGESIDESEYEGDIEETPVFLGCSNVDPHIPEERVHVTASVFERLNGDVEERIYEGMGHGVNEDELAYVSSLTAGLVN | not soluble
MSDRIASEKLRSKLMSADEAAQFVNHGDKVGFSGFTGAGYPKALPTAIANRAKEAHGAGNDYAIDLFTGASTAPDCDGVLAEADAIRWRMPYASDPIMRNKINSGSMGYSDIHLSHSGQQVEEGFFGQLNVAVIEITRITEEGYIIPSSSVGNNVEWLNAAEKVILEVNSWQSEDLEGMHDIWSVPALPNRIAVPINKPGDRIGKTYIEFDTDKVVAVVETNTADRNAPFKPVDDISKKIAGNFLDFLESEVAAGRLSYDGYIMQSGVGNVPNAVMAGLLESKFENIQAYTEVIQDGMVDLIDAGKMTVASATSFSLSPEYAEKMNNEAKRYRESIILRPQQISNHPEVIRRVGLIATNGLIEADIYGNVNSTNVSGSRVMNGIGGSGDFTRNGYISSFITPSEAKGGAISAIVPFASHIDHTEHDVMVVISEYGYADLRGLAPRERVAKMIGLAHPDYRPLLEEYYARATSGDNKYMQTPHDLATAFDFHINLAKNGSMKA | soluble
MSDSDLKEIEKNAENIKLEPAEDEVNEEDQNEITIPELPEGRVLELRLLSNWGDSHYIGLNSVEIFTSTGERAVIDKIATNVTEYTGSLESLIVQRVHCKDAEKMWCAKTTEEKIVLTLELKETCKLALIRFWNYNASRVHAQIGVRYLEMYLDGVGIFRGELECAFSADSEFTPVMGETVLFTTSDNILELIALHDVCLISLPEEPISNSSIEMLKADHLTPYRPSTCEAKDAPSTPVTIVPPPIFRQTGTAYKHDVKTLHIELLSNWGMDGLIGLTGLELVDEHSQLIDESQYTVTTSDGNSDLSKKLFNGRNLTRDPHDMWLVDFDSKNFTTISITFHDNVALKAISVWNYNASFELSYAGVKAAKIYINGKLIKNVLLRKATGFVYFDYVQDVVLDPNNTERDFVPKGISQSIGGFVFQIRLLSTWGDEFYIGLNGIELYNRKGELMKIREHNLAAFPESVNILPNIKNDLRTSNNLITQPNDTDIARNMWLTALLPNRCARVFFVFDVQTYISKIVIYNYRKTPERGVRHISVTVDDLIIFSGEIPSSTATLTGNLEINLMDI | not soluble
